According to patent US20080119412A1 (NONO, published 2008):

What was measured:
Assay in all cases: G assay
[1] = target: …
[2] = target: …; remark: listed apart in the source
[3] = target: Peptide #1791, biotin-…
[4] = target: …; remark: listed apart in the source
[5] = target: Peptide #1841, biotin-…
[6] = target: Peptide #1852, biotin-[…]
[7] = target: Peptide #1846, biotin-[…]
[8] = target: …; remark: listed apart in the source
[9] = target: Peptide #1829, biotin-…

Measured: binding result

B1: GST-PAR3 PDZ domain 3 fusion protein (other, not shown: a dimerising Fc or GST; small tags and cut ends)
chain: PREFLTFEVPLNDSGSAGLGVSVKGNRSKENHADLGIFVKSIINGGAASKDGRLRVNDQLIAVNGESLLGKTNQDAMETLRRSMSTEGNKRGMIQLIVASRISKCNELKSNSS
notes: also called PAR3 d3 (278.1); PAR3 D3
binds: [1] | [2] | [3] | [4]

B2: GST-Syntrophin 1 alpha PDZ domain 1 fusion protein (other, not shown: a dimerising Fc or GST; small tags and cut ends)
chain: QRRRVTVRKADAGGLGISIKGGRENKMPILISKIFKGLAADQTEALFVGDAILSVNGEDLSSATHDEAVQVLKKTGKEVVLEVKYMKDVSPYFK
notes: also called Syntrophin 1 alpha d1 (52.5); Syntrophin 1 alpha D1
binds: [2]

B3: GST-RIM2 PDZ domain 1 fusion protein (other, not shown: a dimerising Fc or GST; small tags and cut ends)
chain: TLNEEHSHSDKHPVTWQPSKDGDRLIGRILLNKRLKDGSVPRDSGAMLGLKVVGGKMTESGRLCAFITKVKKGSLADTVGHLRPGDEVLEWNGRLLQGATFEEVYNIILESKPEPQVELVVSRPIG
notes: also called RIM2 (177.4); RIM-2 d1
not listed: [2]
binds: all other assays above

B4: GST-ZO-1 PDZ domain 2 fusion protein (other, not shown: a dimerising Fc or GST; small tags and cut ends)
chain: ISSQPAKPTKVTLVKSRKNEEYGLRLASHIFVKEISQDSLAARDGNIQEGDVVLKINGTVTENMSLTDAKTLIERSKGKLKMVVQRDRATLLNSS
notes: also called ZO-1 d2 (241.3); ZO-1 D2
not listed: [7]
binds: all other assays above

B5: GST-INADL PDZ domain 3 fusion protein (other, not shown: a dimerising Fc or GST; small tags and cut ends)
chain: PGSDSSLFETYNVELVRKDGQSLGIRIVGYVGTSHTGEASGIYVKSIIPGSAAYHNGHIQVNDKIVAVDGVNIQGFANHDVVEVLRNAGQVVHLTLVRRKTSSSTSRIHRD
notes: also called INADL d3 (96.3); INADL D3
binds: [9] | [4]
